Measured values from the supplement of paper PMC9233669.
This sample holds only a part of the variants without activity.

How the values were obtained:
biotinyl-Trp-oxazolone = experiment: self-aminoacylation, catalytic enhancement (BWO) (fold over background); higher = more active; k-Seq, kA / k0A0; sequences stand for … in GGGAAUGGAUCCACAUCUACGAAUUC…UUCACUGCAGACUUGACGAAGCUG
Procedure, shortened: (§1)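 Working in 50 μL HEPES/NaCl/KCl/MgCl2/CaCl2 buffer with 5% acetonitrile at pH 6.9–7.0, mutagenized RNA pools (0.43 μM; 21-nt variable region) were reacted with 2–1250 μM of each biotinyl-aminoacyl-oxazolone for 90 minutes at room temperature. Streptavidin capture followed, with quantification by triplicate qPCR and Illumina sequencing. Catalytic enhancement is reported as median kA over the uncatalyzed rate, the low-activity peak of a bimodal Gaussian fit to the data.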

biotinyl-Leu-oxazolone = experiment: self-aminoacylation, catalytic enhancement (BLO) (fold over background); higher = more active; k-Seq, kA / k0A0; sequences stand for … in GGGAAUGGAUCCACAUCUACGAAUUC…UUCACUGCAGACUUGACGAAGCUG
Procedure, shortened: as §1

biotinyl-Phe-oxazolone = experiment: self-aminoacylation, catalytic enhancement (BFO) (fold over background); higher = more active; k-Seq, kA / k0A0; sequences stand for … in GGGAAUGGAUCCACAUCUACGAAUUC…UUCACUGCAGACUUGACGAAGCUG
Procedure, shortened: as §1

biotinyl-Val-oxazolone = experiment: self-aminoacylation, catalytic enhancement (BVO) (fold over background); higher = more active; k-Seq, kA / k0A0; sequences stand for … in GGGAAUGGAUCCACAUCUACGAAUUC…UUCACUGCAGACUUGACGAAGCUG
Procedure, shortened: as §1

biotinyl-Ile-oxazolone = experiment: self-aminoacylation, catalytic enhancement (BIO) (fold over background); higher = more active; k-Seq, kA / k0A0; sequences stand for … in GGGAAUGGAUCCACAUCUACGAAUUC…UUCACUGCAGACUUGACGAAGCUG
Procedure, shortened: as §1

biotinyl-Met-oxazolone = experiment: self-aminoacylation, catalytic enhancement (BMO) (fold over background); higher = more active; k-Seq, kA / k0A0; sequences stand for … in GGGAAUGGAUCCACAUCUACGAAUUC…UUCACUGCAGACUUGACGAAGCUG
Procedure, shortened: as §1

Sequence | self-aminoacylation (biotinyl-Trp-oxazolone) | self-aminoacylation (biotinyl-Leu-oxazolone) | self-aminoacylation (biotinyl-Phe-oxazolone) | self-aminoacylation (biotinyl-Val-oxazolone) | self-aminoacylation (biotinyl-Ile-oxazolone) | self-aminoacylation (biotinyl-Met-oxazolone)
AUUCACCUAGGUCCUCGGCUG [Fam2.2 aminoacylation ribozyme variant] | 2.67 | 2.6 | 8.15 | 2.25 | 2.51 | 2.07
AUUCCCCUAGGUCAUCGGGGG [Fam2.2 aminoacylation ribozyme variant] | 13.6 | 13.3 | 51.6 | 10.2 | 8.54 | 8.39
CUACUACAAACAUUCGGUCUG [Fam1A.1 aminoacylation ribozyme variant] | 1.18 | 1.01 | 1.33 | 1.38 | 1.34 | 1.23
AUUACUCUGUUCAUCGAGUGA [Fam2.1 aminoacylation ribozyme variant] | 3.94 | 3.42 | 3.86 | 1.94 | 1.9 | 2.88
AUUACCCUGGUCAUCGAUUGC [Fam2.1 aminoacylation ribozyme variant] | 0.663 | 0.84 | 0.81 | 0.926 | 1.15 | 0.757
AUUCAGCUAUGUCAUCGGGUG [Fam2.2 aminoacylation ribozyme variant] | 3.19 | 3.03 | 16.6 | 2.63 | 2.19 | 3.17
CCACACUUCUAGCAAUCAGUC [Fam1B.1 aminoacylation ribozyme variant] | 0.459 | 0.622 | 1.14 | 0.721 | 0.797 | 0.648
AUUCACAUGGGUCAUCGGGUG [Fam2.2 aminoacylation ribozyme variant] | 8.84 | 11.6 | 70.4 | 5.96 | 5.6 | 9.66
AUUAACCUGGUCAUGGAGUGA [Fam2.1 aminoacylation ribozyme variant] | 4.5 | 3.54 | 9.66 | 2.02 | 2.45 | 4.08
AAGUAUGCUAAUAGUCGCAGG [Fam3.1 aminoacylation ribozyme variant] | 1.2 | 1.46 | 2.31 | 1.48 | 1.44 | 1.37
UUUCACCUAGGUCAGCGGGUG [Fam2.2 aminoacylation ribozyme variant] | 5.12 | 5.53 | 24.2 | 3.92 | 3.75 | 4.92
CUACUUCGAACAAUCCGUCUG [Fam1A.1 aminoacylation ribozyme variant] | 0.588 | 0.587 | 0.35 | 0.745 | 0.636 | 0.738
AGUACCCCGGUCAUCGAGUGA [Fam2.1 aminoacylation ribozyme variant] | 7.21 | 6.8 | 43.9 | 3.75 | 3.7 | 5.52
AUUAACCUAGGUCAUGGGGUG [Fam2.2 aminoacylation ribozyme variant] | 3.44 | 4.82 | 22.6 | 2.38 | 2.28 | 3.3
AAGUUAGCUCAUAGUCGCAAG [Fam3.1 aminoacylation ribozyme variant] | 1.81 | 2.45 | 3.16 | 1.61 | 1.85 | 1.88
CCAAAAUUCAAGCAAUCGGUC [Fam1B.1 aminoacylation ribozyme variant] | 1.13 | 1.08 | 1.09 | 1.21 | 1.17 | 1.01
CUACUUCGAACAUUCGGUCUG [Fam1A.1 aminoacylation ribozyme variant] | 0.84 | 1.18 | 0.576 | 1.32 | 1.29 | 1.05
AAUACCCCGGUCAUCGAGUGA [Fam2.1 aminoacylation ribozyme variant] | 5.61 | 5.27 | 27.9 | 3.57 | 3.15 | 4.63
AUUACCCUAGGCAUCGAGUGA [Fam2.1 aminoacylation ribozyme variant] | 6.47 | 5.37 | 18.1 | 2.68 | 2.47 | 5.3
AUUACCCUGGUCAUCGCGGGA [Fam2.1 aminoacylation ribozyme variant] | 3.4 | 7.42 | 29.3 | 4.56 | 5.03 | 5.35
AUUACCUUAGUCAUCGAGUGA [Fam2.1 aminoacylation ribozyme variant] | 5.48 | 4.62 | 14.8 | 2.59 | 2.71 | 4.41
CAACUUCAAACAAUCGGUCUU [Fam1A.1 aminoacylation ribozyme variant] | 27.7 | 2.43 | 45.8 | 1.5 | 1.59 | 1.53
CUACUGCAGACAAUCGGUCUG [Fam1A.1 aminoacylation ribozyme variant] | 0.497 | 1.07 | 0.577 | 1.04 | 0.897 | 1.06
AAGUUUGCUAAUAAUCGGAAG [Fam3.1 aminoacylation ribozyme variant] | 0.66 | 0.877 | 0.788 | 0.923 | 0.961 | 0.973
AUACCCCUAGGUCAUCGGGUG [Fam2.2 aminoacylation ribozyme variant] | 7.88 | 10.7 | 71.2 | 5.95 | 5.22 | 8.28
AUUACCCUGGACAUCGAGGGA [Fam2.1 aminoacylation ribozyme variant] | 2.17 | 1.46 | 1.26 | 1.19 | 1.53 | 2.18

Sequence | self-aminoacylation (biotinyl-Trp-oxazolone) | self-aminoacylation (biotinyl-Leu-oxazolone) | self-aminoacylation (biotinyl-Phe-oxazolone) | self-aminoacylation (biotinyl-Val-oxazolone) | self-aminoacylation (biotinyl-Ile-oxazolone) | self-aminoacylation (biotinyl-Met-oxazolone)
CCAUACUUCAAGAAAUCGGUC [Fam1B.1 aminoacylation ribozyme variant] | 4.39 | 0.87 | 5.18 | 0.787 | 0.907 | 0.777
CCUCACUCCAAGCAAUCGGUC [Fam1B.1 aminoacylation ribozyme variant] | 2.39 | 0.915 | 5.18 | 0.947 | 1.03 | 0.767
CUACUUCAAACAAUCGGGCCG [Fam1A.1 aminoacylation ribozyme variant] | 1.22 | 1.32 | 1.76 | 0.974 | 1.53 | 1.19
AUUCCCCUAGGUCAUGGGGUG [Fam2.2 aminoacylation ribozyme variant] | 15.8 | 24.7 | 167 | 11.1 | 11.3 | 19
AAGUUUGCUAGUAGUCACAAG [Fam3.1 aminoacylation ribozyme variant] | 0.986 | 0.962 | 1.37 | 1.08 | 1.05 | 1.43
AUUACCCGGGUCAUCGUGUGA [Fam2.1 aminoacylation ribozyme variant] | 5.65 | 5.65 | 39 | 3.17 | 2.6 | 4.88
AUGCACCUAGGUCACCGGGUG [Fam2.2 aminoacylation ribozyme variant] | 4.46 | 3.59 | 25 | 3.68 | 3.86 | 3.97
AUUACCCUGCUCAUCUAGUGA [Fam2.1 aminoacylation ribozyme variant] | 8.05 | 6.75 | 29.8 | 3.3 | 2.97 | 6.35
AUAACCCUGGGCAUCGAGUGA [Fam2.1 aminoacylation ribozyme variant] | 6.57 | 6 | 33.7 | 2.59 | 3 | 5.93
AUUCACCUCGGUCAUCGGAUG [Fam2.2 aminoacylation ribozyme variant] | 0.751 | 0.794 | 0.352 | 1 | 0.927 | 0.789
CUACUUCACUCAAUCGGUCUG [Fam1A.1 aminoacylation ribozyme variant] | 0.651 | 0.719 | 0.865 | 0.934 | 0.732 | 0.72
CAACUUCAAACAUUCGGUCUG [Fam1A.1 aminoacylation ribozyme variant] | 1.74 | 1.5 | 11.5 | 1.57 | 1.53 | 1.34
AUUCACCUAGGUCAGAGGGUG [Fam2.2 aminoacylation ribozyme variant] | 1.68 | 1.49 | 4.38 | 1.14 | 1.1 | 1.36
AUUACCCGGGUUAUCGAGUGA [Fam2.1 aminoacylation ribozyme variant] | 14.6 | 14.4 | 94.5 | 5.94 | 5.68 | 13.3
AUUACCCUGGUGAUCGAGUGU [Fam2.1 aminoacylation ribozyme variant] | 2.96 | 2.31 | 5.19 | 1.57 | 1.51 | 2.12
ACACACUUCAAGAAAUCGGUC [Fam1B.1 aminoacylation ribozyme variant] | 4.86 | 1.32 | 5.64 | 1.27 | 1.24 | 1.41
CUUACCCUGGUCAUCGACUGA [Fam2.1 aminoacylation ribozyme variant] | 1.31 | 0.833 | 0.459 | 0.739 | 1.1 | 0.673
GUUCACCUAGGUCAUCAGGUG [Fam2.2 aminoacylation ribozyme variant] | 1.06 | 1.32 | 2.03 | 1.35 | 1.23 | 1.09
UUUCACCUAUGUCAUCGGGUG [Fam2.2 aminoacylation ribozyme variant] | 5.28 | 5.1 | 31.4 | 3.56 | 3.35 | 4.6
AUUACGCUGGUCAGCGAGUGA [Fam2.1 aminoacylation ribozyme variant] | 4.4 | 4.3 | 21.2 | 2.4 | 3.34 | 4.57
AAGUUUGGUAAUAGUCACAAG [Fam3.1 aminoacylation ribozyme variant] | 0.739 | 0.902 | 1.51 | 1.07 | 1.04 | 1.01
AUUCACCAAGGUCAUCGGGCG [Fam2.2 aminoacylation ribozyme variant] | 3.82 | 4.59 | 16 | 3.64 | 3.24 | 4.07
CUAGUUCAAACAAGCGGUCUG [Fam1A.1 aminoacylation ribozyme variant] | 1.19 | 1.08 | 1.21 | 0.93 | 1.2 | 1.54
CUACUUCAGACAAUGGGUCUG [Fam1A.1 aminoacylation ribozyme variant] | 0.664 | 0.916 | 0.994 | 0.791 | 0.948 | 0.798
AAGUUUGUUAAUAGUCGCAAA [Fam3.1 aminoacylation ribozyme variant] | 1.43 | 1.68 | 2.15 | 1.32 | 1.8 | 1.63
